For one assay, the target named is T1, RACK1 (Rattus norvegicus, UniProt P63245).
T1 construct: an open reading frame of 317 amino acids from the putative translation start site of pRACK1; made in house; host or cells: TB1 E. coli (RACK1); PKC mixture from rat brain
The assay is described as follows: Overlay assay: concentration dependence of PKC binding to recombinant RACK1. Conditions: βPKC in the presence of other PKC isozymes, n=3. As for the experimental part:
Purified recombinant RACK1 protein (100-250 μg per lane, produced as detailed in Example 2) was subjected to SDS/PAGE and blotted onto nitrocellulose membranes (Ausubel). The nitrocellulose membranes were cut into strips, which were incubated for 0.5 hr in overlay buffer (Example 1) in the presence or absence of a mixture of PKC isozymes (α, β, γ, δ, ε and ζ, ˜10 nM each final concentration) and PKC activators (60 μg/ml phosphatidylserine (PS), 2 μg/ml diacylglycerol (DG), and 1 mM CaCl2). Unbound material was removed by five washes, 5-min each, in overlay wash buffer. Where indicated, PKC activators were present during the incubation of PKC with the nitrocellulose strips. The conditions for each sample and corresponding results are presented in part D below.
PKC bound to RACK1 immobilized on nitrocellulose strips was detected as follows. […]
The concentration dependence of PKC binding to RACK1 was characterized with βPKC , since this isozyme is a major component of the PKC mixture used for the overlay assay. The mean half maximal binding was ˜0.375 nM, and maximal binding was ˜4 nM (n=3; values reflect binding of βPKC isozyme in the presence of other PKC isozymes and was determined by scanning autoradiograms in the linear range of detection, as described in Mochly-Rosen, et al., (1991).

The target in assay [1] is mixture of rat brain PKC isozymes (α, β, γ, δ, ε and ζ) (rat). Kind of assay: overlay plus overlay-extraction assay; 10 µM peptide preincubated with PKC isozyme mixture (~10 nM each); immobilized RACK1.
Assay [2] addresses T2, βPKC (rat brain protein kinase C, β isozyme) (rat, UniProt P68403 2-671).
T2 construct: also called beta PKC; βPKC isozyme
Kind of assay: slot-blot PKC overlay of immobilized peptide, with PS, DG and calcium, anti-βPKC detection.

Assay [3] concerns the target mixture of rat brain PKC isozymes (α, β, γ, δ, ε and ζ) (rat). The assay is described as follows: cell-based or functional assay.

Take “βPKC: β isozyme of protein kinase C, major component of the rat brain PKC mixture”: in the assay with RACK1, the “maximal binding to RACK1” value was about 4 nM. Also, the Kd with RACK1 (read-out: mean half maximal binding to RACK1) was about 0.375 nM.

B1: peptide I (peptide)
peptide: KGDYEKILVALCGGN
B1: the % inhibition of PKC binding to recombinant RACK1 in assay [1] came out at 81%.

B2: control peptide (peptide)
peptide: LKGKIL
Consider B2, for which the binding result in assay [2] is given as “no binding”.

B3: peptide rVI (peptide)
peptide: DIINALCF
Consider B3, for which, in assay [3], the PKC autophosphorylation in the absence of PKC activators was over 80%.
